{"source": "patent US20240327477A1", "about": "“COMPOSITIONS AND METHODS FOR THE TREATMENT OF TDP-43 PROTEINOPATHIES” (SOLA BIOSCIENCES LLC, priority 2020, published 2024)", "key": {"[1]": {"target": "T1, GFP-TDP43FL (Homo sapiens, UniProt Q13148)", "T1 construct": "expressed in transfected cells; host or cells: HEK293", "test": "Fluorescence microscopy of GFP-TDP43FL aggregation (GFP foci) in transfected HEK293 cells", "assay_type": "cell-based", "conditions": "vs negative controls and construct 2 (FIG. 7)", "description": "(§1) Expression vector plasmids encoding various protein constructs were transfected into HEK293 cells with Lipofectamine 3000 transfection reagent (Thermo Fisher Scientific). Cell lysates were analyzed for expressed proteins using immunoblot assays. Samples of culture media were centrifuged to remove debris prior to analysis. Cells were lysed in a lysis buffer (10 mM Tris-HCl, pH 8.0, 150 mM NaCl, 10 mM EDTA, 2% SDS) containing 2 mM PMSF and protease cocktail (Complete Protease Inhibitor Cocktail; Sigma). After brief sonication, the samples were analyzed for expressed proteins using immunoblot assays. For immunoblot analysis, samples were boiled in an SDS-sample buffer and run on polyacrylamide electrophoresis. Thereafter, the separated protein bands were transferred to a PVDF membrane.\nIn some instances, aggregation of TDP-43 (full-length of C-terminal fragment) GFP reporter constructs (described below) were detected in vivo using fluorescence microscopy. Cultured cells expressing the reporter constructs as well as the fusion protein comprising the J domain and TDP-43-binding domain were washed with PBS and fixed with 4% paraformaldehyde in PBS for 5 minutes. After three 5-min washes with PBS, nuclear DNA was stained with DAPI. Percentage of cells containing TDP-43 (GFP foci) in transfected cells was counted. […]"}, "[2]": {"target": "T2, GFP-TDP43CTF (Homo sapiens, UniProt Q13148)", "T2 construct": "expressed in transfected cells; host or cells: HEK293", "test": "Fluorescence microscopy of GFP-TDP43CTF aggregation (GFP foci) in transfected HEK293 cells", "assay_type": "cell-based", "conditions": "for aggregation of GFP-TDP43CTF reporter in cells (in words): HEK293 cells, vs reporter alone; for reduction of TDP-43 aggregation: GFP-TDP43CTF reporter, vs reporter alone (FIG. 8/9, Table 12)", "description": "as §1\nIn some instances, aggregation of TDP-43 (full-length of C-terminal fragment) GFP reporter constructs (described below) were detected in vivo using fluorescence microscopy. Cultured cells expressing the reporter constructs as well as the fusion protein comprising the J domain and TDP-43-binding domain were washed with PBS and fixed with 4% paraformaldehyde in PBS for 5 minutes. After three 5-min washes with PBS, nuclear DNA was stained with DAPI. Percentage of cells containing TDP-43 (GFP foci) in transfected cells was counted.\nWe first investigated whether the fusion molecule of the present invention targeting TDP-43 ameliorates its aggregation in cultured cells. To this end, we generated GFP-based reporter constructs GFP-TDP43 and GFP-TDP43, wherein GFP was fused at its C-terminus to either the full-length human TDP-43 protein or the C-terminal fragment TDP-43 which is known to form cytoplasmic aggregation and cytotoxicity (See Table 8 below). HEK293 cells were cultured and transfected with the plasmids encoding the full-length TDP43 or the C-terminal fragment of TDP43, containing the C-terminal 207 amino acids TDP-43 (amino acids 208-414 of human TDP-43) as a GFP fusion [GFP-TDP43FL (SEQ ID NO: 101) or GFP-TDP43CTF (SEQ ID NO: 102)]."}, "[3]": {"target": "T3, human TDP-43ΔNLS (Homo sapiens, UniProt Q13148, K82A/K84A/R83A)", "T3 construct": "expressed in transfected cells; host or cells: transgene in NEFH-tTA x hTDP-43ΔNLS bigenic mice (rNLS mice), in vivo", "test": "Efficacy in rNLS8 (NEFH-tTA x hTDP-43ΔNLS) mouse model of ALS, ICV AAV rh10", "assay_type": "in vivo", "conditions": "rNLS8 mice (Dox −)", "description": "Vectors prepared above were tested on TDP-43-asociated pathologies of a novel AAV NEFH-tTA×hTDP-43ΔNLS bigenic mice (rNLS mice). This model has a doxycycline (DOX)-repressible construct expressing pathogenic TDP-43 (human TDP-43ΔNLS). Upon removal of DOX, TDP-43ΔNLS expression causes a rapid and progressive deterioration of the animals, causing severe weight loss and, generally within 6-8 weeks, death. We tested the efficacy of Construct 3 (JB1-scFv (3B12A), SEQ ID NO: 80) in slowing the progression of TDP-43ΔNLS-mediated pathology. AAV rh10 containing control or Construct 3 were administered ICV unilaterally at P1/P2 at a volume of 2 ul (maximum 4 ul) in different groups as shown below in Table 17. Except for the control group 1, DOX removal occurred at week 5. Control mice in group\nBody weight was measured twice weekly after weaning. After completion of testing, samples were collected from all surviving mice. Whole brains were collected and split into 2 hemispheres. One hemisphere were weighed and frozen on dry ice. The second hemisphere were post fixed in 4% PFA for histology assessments."}, "[4]": {"assay_type": "in vivo, mouse", "conditions": "C57BL/6J mice, AAV rh10 vector encoding Construct 3 vs control, three weeks after ICV or IT injection; data not shown"}, "[5]": {"target": "T1, GFP-TDP43FL", "test": "Immunoblot (anti-GFP) of reporter level in cell extracts", "assay_type": "cell-based", "conditions": "cell extracts (FIG. 5)", "description": "as §1\n(§2) Expressed proteins were detected using a chemiluminescent signal. Briefly, blots were reacted with a primary antibody capable of binding the particular epitope (e.g., GFP). After rinsing away the unreacted primary antibody, a secondary, enzyme-linked antibody (e.g., HRP-linked anti-lgG antibody) was allowed to react with the primary antibody molecules bound to the blots. Following rinsing, a chemiluminescent reagent was added, and the resultant chemiluminescent signals in the blots were captured on X-ray film."}, "[6]": {"target": "T2, GFP-TDP43CTF", "test": "Immunoblot (anti-GFP) of reporter level in cell extracts", "assay_type": "cell-based", "conditions": "vs negative control", "description": "as §1, §2"}, "[7]": {"target": "T2, GFP-TDP43CTF", "test": "Fractionation assay: soluble and insoluble fractions, immunoblot", "assay_type": "cell-based", "conditions": "GFP-TDP43CTF reporter, HEK293 cells", "description": "Transfected HEK293 cells are homogenized in RIPA buffer (50 mM Tris, pH7.5, 150 mM NaCl, 0.1% NP-40, 0.5% sodium deoxycholate, 0.1% SDS) supplemented with protease inhibitor cocktail, 2 mM PMSF, 10 mM NaF, and 2 mM Na3VO4. After brief sonication, protein concentration is measured by BCA assay kit (Pierce). The equal protein amount is spun down by centrifugation at 16,000×g for 30 minutes at 4° C. to fractionate into soluble fraction (supernatant) and insoluble fraction (pellet). The insoluble fraction is further solubilized in SDS lysis buffer (10 mM Tris, pH8.0, 150 mM NaCl, 2% SDS). Both soluble and insoluble fractions were applied to SDS-PAGE under reducing condition, followed by immunoblotting assay with anti-GFP antibody."}, "[8]": {"system": "GFP-TDP43CTF", "test": "Bafilomycin A1 or MG132 treatment of cells co-expressing reporter and Construct 3, immunoblot", "assay_type": "cell-based, human", "conditions": "immunoblot (FIG. 10)", "description": "Cells were transfected either with the reporter construct GFP-TDP43FL (lane 2) or GFP-TDP43CTF (lanes 3-8), and co-transfected with nucleic acids encoding Construct 3 (lanes 4-8).\nWe next investigated the mechanism of the fusion protein in reducing aggregation. HEK293 cells were transfected with the GFP-TDP43FL or GFP-TDP43CTF reporter construct, either alone or with Construct 3 (JB1-scFv (3B12A)), as well as with BFA (Bafilomycin A1, an inhibitor of the late phase of autophagy) or MG132 (proteasome inhibitor)."}}, "note": "Entries after “also recorded” stand apart in the source; their conditions may differ. Where a SMILES comes first, the peptide text is derived from it. The star is where a group is joined. Cbz = O=C(OCc1ccccc1)*"}
{"compound": "Construct 5: Reversed arrangement of J domain and TDP-43 from Construct 3", "values": [{"measurement": "aggregation level in cells expressing GFP-TDP43FL reporter (in words)", "setting": "[1]", "value": "modest reduction"}, {"measurement": "aggregation of GFP-TDP43CTF reporter in cells (in words)", "setting": "[2]", "value": "dramatically reduced"}]}
{"compound": "Construct 3: DnaJB1 J domain fused to scFv(3B12A)", "values": [{"measurement": "survival at week 10", "setting": "[3]; AAV rh10 6 × 10^10 vg ICV at P1, DOX removal at week 5 (FIG. 16C)", "value": 100, "unit": "%"}, {"measurement": "body weight compared with Group 2 (AAV control, DOX off)", "setting": "[3]; males, AAV rh10 6 × 10^10 vg ICV at P1, DOX removal at week 5 (FIG. 16B)", "value": "statistically significant weight increase"}, {"measurement": "aggregation level in cells expressing GFP-TDP43FL reporter (in words)", "setting": "[1]", "value": "modest reduction"}, {"measurement": "reduction of TDP-43 aggregation", "setting": "[2]", "value": "> 90", "unit": "%"}, {"measurement": "aggregation of GFP-TDP43CTF reporter in cells (in words)", "setting": "[2]", "value": "substantially reduced aggregation"}, {"measurement": "aggregation of GFP-TDP43CTF reporter in cells (in words)", "setting": "[2]; listed as construct 3", "value": "dramatically reduced"}, {"measurement": "body weight", "setting": "[4]", "value": "No difference in body weight"}, {"measurement": "levels of the full-length reporter construct (GFP-TDP43FL), anti-GFP immunoblot (in words)", "setting": "[5]", "value": "No differences"}, {"measurement": "amount of GFP-TDP43CTF reporter protein, anti-GFP immunoblot (in words)", "setting": "[6]", "value": "lower levels"}, {"measurement": "amount of GFP-TDP43CTF reporter protein, anti-GFP immunoblot (in words)", "setting": "[6]; listed as construct 3", "value": "marked reduction"}]}
{"compound": "Construct 20: Construct 3 containing the dimerization domain from human DnaJA1", "values": [{"measurement": "ability to reduce aggregation of GFP-TDP43CTF (in words, with Table 15)", "setting": "[7]", "value": "potent reduction"}]}
{"compound": "CC(C)C[C@@H](C=O)NC(=O)[C@H](CC(C)C)NC(=O)[C@H](CC(C)C)NC(=O)OCc1ccccc1", "note": "[MG132] (Cbz-Leu-Leu-Leu-aldehyde)", "values": [{"measurement": "level of GFP-TDP43CTF reporter in cells co-expressing Construct 3 after MG132 treatment", "setting": "[8]; MG132 0.1 μM or 1.0 μM", "value": "little to no effect"}]}
{"compound": "Construct 4: Same as construct 3, with a P33Q mutation in the conserved HPD motif", "values": [{"measurement": "aggregation of GFP-TDP43CTF reporter in cells (in words)", "setting": "[2]", "value": "did not reduce aggregation"}, {"measurement": "levels of the full-length reporter construct (GFP-TDP43FL), anti-GFP immunoblot (in words)", "setting": "[5]", "value": "No differences"}]}
{"compound": "Construct 9: Full-length J protein control [reference compound]", "values": [{"measurement": "reduction of TDP-43 aggregation", "setting": "[2]", "value": "~43", "unit": "%"}, {"measurement": "amount of GFP-TDP43CTF reporter protein, anti-GFP immunoblot (in words)", "setting": "[6]", "value": "lower levels"}]}
{"compound": "CO/C1=C\\C(C)=C\\[C@@H](C)[C@@H](O)[C@@H](C)C/C(C)=C/C=C/[C@H](OC)[C@@H]([C@@H](C)[C@@H](O)[C@H](C)[C@@]2(O)C[C@@H](O)[C@H](C)[C@@H](C(C)C)O2)OC1=O", "note": "[BFA, Bafilomycin A1]", "values": [{"measurement": "level of GFP-TDP43CTF reporter in cells co-expressing Construct 3 after BFA treatment", "setting": "[8]; BFA 0.01 μM (10 nM) or 0.1 μM (100 nM)", "value": "higher levels; also recorded: reappearance of pathogenic TDP43 in a dose dependent manner"}]}
{"compound": "Construct 14: J domain from DnaJB1 fused to two tandem copies of QBP1", "values": [{"measurement": "reduction of TDP-43 aggregation", "setting": "[2]", "value": "~71", "unit": "%"}, {"measurement": "amount of GFP-TDP43CTF reporter protein, anti-GFP immunoblot (in words)", "setting": "[6]", "value": "lower levels"}]}
